Patent US20220267427A1 (SYSMEX, published 2022)

Legend:
rfCK18 (127-430) = biological target: T1, rfCK18 (127-430) (human, UniProt P05783 127-430); experiment: solid phase ELISA; antigen (0.3 ug/mL) captured by anti-GST or penta HIS antibody on plate, antibody 5 to 10 ng/mL
T1 construct: Bought (Proteintech Inc.); captured through an anti-GST or penta HIS antibody, the tag is not described
T1 sequence: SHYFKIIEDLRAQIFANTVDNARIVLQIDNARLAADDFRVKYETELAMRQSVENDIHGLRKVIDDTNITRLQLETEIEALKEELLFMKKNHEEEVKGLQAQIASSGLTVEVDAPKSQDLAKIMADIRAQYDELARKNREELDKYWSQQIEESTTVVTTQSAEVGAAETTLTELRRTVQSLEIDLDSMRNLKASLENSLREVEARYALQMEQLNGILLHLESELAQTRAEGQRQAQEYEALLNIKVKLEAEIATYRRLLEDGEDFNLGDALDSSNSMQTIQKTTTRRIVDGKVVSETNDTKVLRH
Description: (1) An ANTI GST antibody or a penta HIS antibody was added to an ELISA plat at 2.5 μg/mL and 50 μL/well, and the plate was allowed to stand at 4° C. overnight to immobilize the antibody. Thereafter, the plate was washed three times with PBST, and Buffer I′ (10 mM NaH₂PO₄.2H₂O, 149.7 mM NaCl, 2.5 mM EDTA 2Na, 0.10% BSA, pH 7.0) was added thereto at 200 μL/well to prepare a plate stored at 4° C. overnight. […] (3) The plate was washed three times with PBST, and 50 μL each of each antigen diluent was added thereto, followed by shaking for 45 minutes. […] (6) The plate was washed three times with PBST, and 15000-fold diluted Peroxidase-conjugated Affinipure F(ab)′2 Fragment Goat Anti-Mouse IgG (H+L) (Jackson) was added thereto at 50 μL/well, followed by shaking for 45 minutes. (7) The plate was washed three times with PBST, TMB Mix (1-step Ultra TMB-ELISA (Thermo Scientific):3% H₂O₂: Phosphate-Citrate buffer (Sigma)=15:0.15:14.85) was added thereto at 100 μL/well, and the mixture was reacted at room temperature for 10 minutes. Thereafter, 1 M H₂SO₄ was added thereto at 100 μL/well to stop the reaction. (8) Absorbance of the reaction solution at 450 nm was measured with a plate reader.

[1] = biological target: T2, fCK18 in apoptosis-induced HepG2 cell culture supernatant (human, UniProt P05783 239-397); experiment: HISCL sandwich immunoassay; K18-624 magnetic microbeads capture, K18-328Fab-ALP detector; fCK18 0.74 ng/mL
T2 construct: Natural CK18 fragment from the culture supernatant of apoptosis-induced HepG2 cells (band around 18 KDa); also called fCK18 in apoptosis-inducing cells
T2 sequence: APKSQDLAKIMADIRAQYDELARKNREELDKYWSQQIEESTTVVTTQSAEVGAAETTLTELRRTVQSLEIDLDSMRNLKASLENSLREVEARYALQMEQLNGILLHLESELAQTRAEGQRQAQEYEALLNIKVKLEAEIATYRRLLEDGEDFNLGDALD

[2] = biological target: T2, fCK18 in apoptosis-induced HepG2 cell …; experiment: plate ELISA with K18-624 magnetic microbeads, K18-328Fab-ALP detector
Description: (§1) Measurement samples of 3-fold dilution series (3-fold to 6561-fold dilution) were prepared from the apoptosis-induced HepG2 cell culture supernatant with a diluent (TBS, pH 7.5, 2% BSA), and fCK18 was measured. […] Based on the prepared calibration curve, fCK18 in the measurement sample was measured.
(§2) This solution was added to an ELISA plate at 25 μL/well, then each measurement sample was added at 25 μL/well, and the plate was incubated (1500 rpm, RT, 20 min). […] (3) After washing the plate, the HISCL (registered trademark) R4 reagent was added thereto at 50 μL/well, and then the mixture was stirred (1500 rpm, RT, 1 min). Thereafter, the HISCL (registered trademark) R5 reagent was added at 100 μL/well, and then the mixture was stirred (1000 rpm, RT, 10 sec). (4) Luminescence intensity was measured with a plate reader.

[3] = biological target: T2, fCK18 in apoptosis-induced HepG2 cell …; experiment: plate ELISA with K18-624 magnetic microbeads, K18-328Fab-ALP detector; fCK18 0.74 ng/mL
Description: as §1, §2

[4] = biological target: T2, fCK18 in apoptosis-induced HepG2 cell …; experiment: HISCL sandwich immunoassay; K18-624 magnetic microbeads capture, K18-328Fab-ALP detector; fCK18 60.73 ng/mL
[5] = biological target: T2, fCK18 in apoptosis-induced HepG2 cell …; experiment: HISCL sandwich immunoassay; K18-624 magnetic microbeads capture, K18-328Fab-ALP detector; fCK18 2.23 ng/mL
[6] = biological target: T2, fCK18 in apoptosis-induced HepG2 cell …; experiment: plate ELISA with K18-624 magnetic microbeads, K18-328Fab-ALP detector; fCK18 6.79 ng/mL
Description: as §1, §2

[7] = biological target: T2, fCK18 in apoptosis-induced HepG2 cell …; experiment: plate ELISA with K18-624 magnetic microbeads, K18-328Fab-ALP detector; fCK18 0.09 ng/mL
Description: as §1, §2

[8] = biological target: T2, fCK18 in apoptosis-induced HepG2 cell …; experiment: HISCL sandwich immunoassay; K18-624 magnetic microbeads capture, K18-328Fab-ALP detector; fCK18 6.79 ng/mL
Description: as §1, §2

[9] = biological target: T2, fCK18 in apoptosis-induced HepG2 cell …; experiment: HISCL sandwich immunoassay; K18-624 magnetic microbeads capture, K18-328Fab-ALP detector
[10] = biological target: T2, fCK18 in apoptosis-induced HepG2 cell …; experiment: plate ELISA with K18-624 magnetic microbeads, K18-328Fab-ALP detector; fCK18 60.73 ng/mL
Description: as §1, §2

B1: K18-328 antibody (antibody, V domains shown)
VH: QVHLQQSAAELARPGASVKMSCKASGYTFTNYTIHWIKQRPGQGLEWIGYINPSSGYTDYNQNFKDKTTLTADKSSTTVYMQLSSLTSEDSAVYYCARQIPFAYWGQGTLVTVSA
VL: not shown
notes: Mouse monoclonal antibody from a hybridoma (immunogen full length rCK18)
- Abs450 (rfCK18 (127-430)): 0.89

B2: K18-624 antibody (antibody, V domains shown)
VH: DVQLVESGGGLVQPGGSRKLSCAASGFTFSSFGMHWVRQAPEKGLEWVAYISSGSTTIYYADTVKGRFTISRDNPKNTLFLQMTSLRSEDTAMYYCARRGMITTGAWFAYWGQGTLVTVSA
VL: DILLTQSPAILSVSPGERVSFSCRASQRIGTSIHWYQQRTNGSPRLLIKYASESISGIPSRFSGSGSGTDFTLSINSVESEDIADYYCQQSYIWPFTFGSGTKLEIK
notes: Mouse monoclonal antibody from a hybridoma (Balb/C mouse immunised with Peptide 1-KLH)
- S/N ratio [1]: 9.4
- fCK18 concentration detectable (S/N ratio of 2 or more) [2]: ≥ 0.09 ng/mL
- fold detection sensitivity compared with Comparative Example 1 (M30 antibody) [2]: ~24 fold
- S/N ratio [3]: 16.1
- S/N ratio [4]: 683
- S/N ratio [5]: 25.9
- S/N ratio [6]: 158
- S/N ratio [7]: 2.7
- S/N ratio [8]: 75.7
- fCK18 concentration detectable (S/N ratio of 2 or more) [9]: ≥ 0.28 ng/mL
- fold detection sensitivity compared with Comparative Example 1 (M30 antibody) [9]: ~8 fold
- S/N ratio [10]: 1850
